Source: FireProtDB
Several values for one entry are separate records, joined by “and”; a condition that tells them apart may be missing. Equal values may be shown once.

Conditions: whole UniProt chain shown
[1] = Bacillus amyloliquefaciens, pH 7, 25 °C, GdnHCl, CD, phosphate 20 mM
[2] = Bacillus amyloliquefaciens, pH 8, 25 °C, Urea, Fluorescence, Tris-HCl 50 mM, reversible: yes
[3] = Bacillus amyloliquefaciens, pH 8, Thermal, CD, Sodium phosphate 2 mM, reversible: yes
[4] = Bacillus amyloliquefaciens, pH 8, Thermal, DSC, Sodium phosphate 10 mM, reversible: yes
[5] = Bacillus amyloliquefaciens, pH 9.5, Thermal, DSC, Sodium phosphate 10 mM, reversible: yes
[6] = Bacillus amyloliquefaciens, pH 7.5, Thermal, fluorescence, Pipes 10 mM, transition: 2
[7] = Bacillus caldolyticus, pH 7, Thermal, CD, sodium cacodylate 100 mM, NaCl 2 M, reversible: yes
[8] = Bacillus caldolyticus, pH 7, Thermal, CD, sodium cacodylate 100 mM, reversible: yes
[9] = Aliivibrio salmonicida (strain LFI1238), pH 8, Thermal, DSC, HEPES, MgCl2 NaCl 5 mM 0.175, reversible: no
[10] = Aliivibrio salmonicida (strain LFI1238), pH 8, Thermal, DSC, HEPES, MgCl2 NaCl 5 mM 1, reversible: no
[11] = Aliivibrio salmonicida (strain LFI1238), pH 8, Thermal, DSC, Tris-HCl 50mM, NaCl 0.175 M
[12] = Aliivibrio salmonicida (strain LFI1238), pH 8, Thermal, DSC, Tris-HCl 50mM, NaCl 1 M
[13] = Bacillus amyloliquefaciens, pH 6, 25 °C, GdnHCl, Fluorescence, MES 50 mM, CaCl2 5 mM, reversible: no
[14] = Aquifex aeolicus (strain VF5), pH 7, 20 °C, GdnHCl, Fluorescence, Sodium phosphate sodium chloride 25 mM 100 mM

B1: Barstar wild type, P11540 (protein)
chain: MKKAVINGEQIRSISDLHQTLKKELALPEYYGENLDALWDCLTGWVEYPLVLEWRQFEQSKQLTENGAESVLQVFREAKAEGCDITIILS
denaturant midpoint (higher = more stable) [1]: 1.92 M | unfolding free energy [1]: 4.6 kcal/mol | unfolding free energy (Bacillus amyloliquefaciens, pH 8, 10 °C, Urea, CD, Tris Cl 50 mM, KCl 100 mM): 3 kcal/mol | denaturant m value [2]: 1.25 kcal/mol/M | denaturant midpoint (higher = more stable) [2]: 3.87 M | unfolding free energy [2]: 4.84 kcal/mol | Tm [3]: 70 °C | heat capacity change of unfolding [3]: 1.49 kcal/mol/K | unfolding enthalpy (van 't Hoff) [3]: 69.7 kcal/mol | Tm [4]: 69.7 °C | heat capacity change of unfolding [4]: 1.41 kcal/mol/K | unfolding enthalpy (calorimetric) [4]: 42.6 kcal/mol | unfolding enthalpy (van 't Hoff) [4]: 60 kcal/mol | Tm [5]: 68.7 °C | heat capacity change of unfolding [5]: 1.36 kcal/mol/K | unfolding enthalpy (calorimetric) [5]: 41.2 kcal/mol | unfolding enthalpy (van 't Hoff) [5]: 56.1 kcal/mol

B2: Subtilisin BPN' wild type, P00782 (protein)
chain: MRGKKVWISLLFALALIFTMAFGSTSSAQAAGKSNGEKKYIVGFKQTMSTMSAAKKKDVISEKGGKVQKQFKYVDAASATLNEKAVKELKKDPSVAYVEEDHVAHAYAQSVPYGVSQIKAPALHSQGYTGSNVKVAVIDSGIDSSHPDLKVAGGASMVPSETNPFQDNNSHGTHVAGTVAALNNSIGVLGVAPSASLYAVKVLGADGSGQYSWIINGIEWAIANNMDVINMSLGGPSGSAALKAAVDKAVASGVVVVAAAGNEGTSGSSSTVGYPGKYPSVIAVGAVDSSNQRASFSSVGPELDVMAPGVSIQSTLPGNKYGAYNGTSMASPHVAGAAALILSKHPNWTNTQVRSSLENTTTKLGDSFYYGKGLINVQAAAQ
unfolding free energy (Bacillus amyloliquefaciens, pH 5, 20 °C, Thermal, DSC, Sodium acetate 100 mM, reversible: yes): 2.1 kcal/mol | Tm (Bacillus amyloliquefaciens, pH 7, Thermal, CD, KPO4 100 mM): 65 °C | Tm [6]: 53.9 °C and 56.8 °C | unfolding enthalpy (calorimetric) [6]: 55.8 kcal/mol and 56.7 kcal/mol | Tm (Bacillus amyloliquefaciens, pH 8, Thermal, DSC, Tris-HCl 50 mM, CaCl2 10 mM, reversible: no): 78.3 °C | Tm (Bacillus amyloliquefaciens, pH 8, Thermal, DSC, Tris-HCl 50 mM, KCl 50 mM): 58.9 °C

B3: Cytidine deaminase wild type, Q9R2S1 (protein)
chain: MEIEQLIVEAKKARELAYVPYSKFPVGAALLTKGGSVYRGCNIENAAYSVCNCAERTALFKAYSEGEKEFTALAVIADTPRPVPPCGACRQVIAELCHGDMKVILANLKGDVKVMTVSELLPEAFSAEDLHA
unfolding free energy (Bacillus caldolyticus, pH 7, 25 °C, GdnHCl, CD, potassium phosphate 20 mM, reversible: no): 4.3 kcal/mol

B4: Cold shock protein CspB wild type, P41016 (protein)
chain: MQRGKVKWFNNEKGYGFIEVEGGSDVFVHFTAIQGEGFKTLEEGQEVSFEIVQGNRGPQAANVVKL
unfolding free energy (Bacillus caldolyticus, pH 7, 60 °C, Thermal, CD, sodium cacodylate 100 mM, NaCl 2 M, reversible: yes): 3.37 kcal/mol | unfolding free energy (Bacillus caldolyticus, pH 7, 60 °C, Thermal, CD, sodium cacodylate 100 mM, reversible: yes): 2.44 kcal/mol | Tm [7]: 84.4 °C | unfolding enthalpy (van 't Hoff) [7]: 61.4 kcal/mol | Tm [8]: 76.9 °C | unfolding enthalpy (van 't Hoff) [8]: 58.6 kcal/mol

B5: wild type, Q2XSL7 (protein)
chain: MKLIRLVISLIAVSFTVNVMAAPPSSFSKAKKEAVKIYLDYPTSFYCGCDITWKNKKKGIPELESCGYQVRKQEKRASRIEWEHVVPAWQFGHQRQCWQKGGRKNCTRNDKQFKSMEADLHNLVPAIGEVNGDRSNFRFSQWNGSKGAFYGQCAFKVDFKGRVAEPPAQSRGAIARTYLYMNNEYKFNLSKAQRQLMEAWNKQYPVSTWECTRDERIAKIQGNHNQFVYKACTK
Tm [9]: 41.8 °C | unfolding enthalpy (calorimetric) [9]: 64 kcal/mol | Tm [10]: 51.9 °C | unfolding enthalpy (calorimetric) [10]: 88.7 kcal/mol | Tm [11]: 41.8 °C | unfolding enthalpy (calorimetric) [11]: 64 kcal/mol | Tm [12]: 51.9 °C | unfolding enthalpy (calorimetric) [12]: 88.6 kcal/mol

B6: Beta-glucanase wild type, P07980 (protein)
chain: MKRVLLILVTGLFMSLCGITSSVSAQTGGSFFEPFNSYNSGLWQKADGYSNGDMFNCTWRANNVSMTSLGEMRLALTSPSYNKFDCGENRSVQTYGYGLYEVRMKPAKNTGIVSSFFTYTGPTEGTPWDEIDIEFLGKDTTKVQFNYYTNGAGNHEKFADLGFDAANAYHTYAFDWQPNSIKWYVDGQLKHTATTQIPAAPGKIMMNLWNGTGVDDWLGSYNGVNPIYAHYDWMRYRKK
denaturant midpoint (higher = more stable) [13]: 2.73 M and 2.84 M | unfolding free energy [13]: 12.9 kcal/mol and 4.97 kcal/mol

B7: wild type, O66926 (protein)
chain: MKKFLIPFLTFLGFTFSSELIPCKVVRVVDGDTFRCVPEGKSRFIKVRLMGIDTLETNNMKKGMGQAKWFYGGIRTVKEFGKKAKEFSKRLIDKKVVYLELPVRKMDNNGRYLAYVWLDEYRNKMLNLLLVKEGLAFVFIIPPQVKYLKELGEAQEEAYKDRRGFWKYFKGE
denaturant m value [14]: 1.02 kcal/mol/M | denaturant midpoint (higher = more stable) [14]: 0.42 M | unfolding free energy [14]: 2.8 kcal/mol
